# Measured values: US20190314479A1
# Biological target: HLA-A2 molecules
# Assay: T2A2 peptide binding assay to HLA-A2
row,Binder,T2A2 Binding
1,YMLDLQPET (modifications not checked) [HPV-16 E7 native peptide E7-1 (E7 11-19)],1100
2,QQYNKPLCDL (modifications not checked) [HPV-16 E6 native peptide E6-3 (E6 90-99)],1020
